According to patent US20040030097A1, “Peptide mimetics” (priority 2000, published 2004):

How the values were obtained:
cell proliferation = conditions: EPO, read-out: EC50 (concentration for half maximal response); cited from earlier work
[1] = biological target: T1, IL-4Rα (recombinant extracellular domain of the receptor α-chain [C182A,Q206C]-IL4-BP) (Homo sapiens, UniProt P24394, C207A/Q231C); test: Surface plasmon resonance binding assay (BIAcore 2000) with immobilized IL-4Rα; conditions: 25° C., HBS buffer, physiological salt concentration
T1 construct: A recombinant extracellular domain of the receptor α-chain [C182A,Q206C]-IL4-BP was immobilized
T1 sequence (P24394 26-232 C207A/Q231C): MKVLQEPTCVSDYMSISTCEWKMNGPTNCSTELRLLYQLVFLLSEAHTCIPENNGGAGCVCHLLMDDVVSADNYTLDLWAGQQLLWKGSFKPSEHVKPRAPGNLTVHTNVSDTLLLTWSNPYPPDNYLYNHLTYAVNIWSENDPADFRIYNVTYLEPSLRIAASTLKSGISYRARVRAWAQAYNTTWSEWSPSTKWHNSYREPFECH
Experimental: The binding affinities of the designed peptide mimetics were measured by surface plasmon resonance using a BIAcore 2000 (Pharmacia Biosensor AB). A recombinant extracellular domain of the receptor α-chain [C182A,Q206C]-IL4-BP was immobilized at a biosensor CM5 to a density of 1500 to 2000 pg/mm^2, as described by Shen et al. (Shen et al., 1996). Ligand binding was analyzed at 25° C. by perfusion with HBS buffer (10 mM Hepes, pH 7.4/150 mM NaCl/3.4 mM EDTA/0.005% surfactant P20) at a flow rate of 50 μl/min.

[2] = Temperature denaturation monitored by CD at 222 nm; assay type: physicochemical
Experimental: The thermal denaturation was measured by monitoring the change in signal at 222 nm over a temperature range of 5-80° C., in a cuvette with a 2 mm path. Measurements were made in 0.5 degrees increments, with a response time of 2 s and a bandwidth of 1 nm, at a temperature slope of 50° C./h. The peptide concentration calculated from the absorbance at 280 nm was 15 μM (Pace et al., 1995).
(§1) A helical content of 34% was calculated as described above was. […] (FIG. 5).

[3] = Far UV circular dichroism, helical content; assay type: physicochemical; conditions: far UV CD, 278 K, 15 μM peptide, from ellipticity at 222 nm
Experimental: The far UV CD spectra of the peptide was recorded, on a Jasco-710 instrument, at 278 K, in a cuvette with a 2 mm path. Measurements were made every 0.1 nm, with a response time of 2 s and a bandwidth of 1 nm, at a scan speed of 50 nm/min. The spectra shown in the text represent an average over 20 scans. The peptide concentration, calculated from the absorbance at 280 nm (Pace et al., 1995) was 15 μM. The helical percentage was calculated from the mean residue ellipticity at 222 nm, taking into account the peptide length (Chen et al., 1974), according to the following:
where n is the number of residues in the peptide and θ^obs222 nm is the ellipticity of the peptide at 222 nm. The CD experiments were carried out using the same buffer conditions as in the surface plasmon resonance assays.
as §1

HeLa cells = test: Toxicity experiments with HeLa cells; assay type: cell-based

EPO: cytokine erythropoietin
EC50 (cell proliferation): 0.02 nM

solup10: 45-residue ROP-derived mini-protein containing the IL-4 binding site: MGTDIQRYERAQTLALLEKLNELDADKQADRLRKRLARNDWLFGS
Kd [1]: 40 µM
reversibility of temperature-induced denaturation ([2]; 5-80° C., CD signal recovered upon cooling from 80 to 5° C.): reversible process
loss of helical content at assay temperature ([2]; 25° C.): lost half of its helical content
helical content [3]: 34%
toxicity to mammalian cells in combination with IL-4 (HeLa cells; in combination with IL-4 at concentrations of up to 500 μM): non-toxic
concentration up to which non-toxic to mammalian cells (HeLa cells; solup10 alone): ≥ 500 µM
